Blank lines part the entries; values can stand above or below the molecule they belong to.
Tests used:
Assay in all cases: cell-based or functional assay
[1] = molecular target: human TSHR (wild type) expressed in CHO cells (human) (UniProt P16473)
[2] = molecular target: human TSHR expressed on CHO cells (human) (UniProt P16473)
[3] = molecular target: human TSHR with Asp276 mutated to Alanine, expressed in CHO cells (human) (UniProt P16473)
[4] = molecular target: wild type human TSHR (human) (UniProt P16473)
[5] = molecular target: human TSHR with activating mutation S281I, on CHO cells (human) (UniProt P16473)
[6] = molecular target: TSHR with Glu251 mutated to Alanine expressed on CHO cells (human) (UniProt P16473)

Molecule: 5C9 IgG (antibody)
% inhibition of TSH stimulated cyclic AMP level; pTSH 3 ng/mL + 1 µg/mL 5C9 [1]: 92% | Cyclic AMP produced; 5C9 0.01 µg/mL + pTSH 3 ng/mL; Experiment 1 (fmol/cell well) [1]: 17200 | Cyclic AMP produced; 5C9 0.01 µg/mL + pTSH 3 ng/mL; Experiment 2 (fmol/cell well) [1]: 14100 | Cyclic AMP produced; 5C9 0.1 µg/mL + pTSH 3 ng/mL; Experiment 1 (fmol/cell well) [1]: 5590 | Cyclic AMP produced; 5C9 0.1 µg/mL + pTSH 3 ng/mL; Experiment 2 (fmol/cell well) [1]: 4460 | Cyclic AMP produced; 5C9 1.0 µg/mL + pTSH 3 ng/mL; Experiment 1 (mean of duplicate determinations) (fmol/cell well) [1]: 759 | Cyclic AMP produced; 5C9 1.0 µg/mL + pTSH 3 ng/mL; Experiment 2 (fmol/cell well) [1]: 657 | Cyclic AMP produced; 5C9 10 µg/mL + pTSH 3 ng/mL; Experiment 1 (fmol/cell well) [1]: 366 | Cyclic AMP produced; 5C9 10 µg/mL + pTSH 3 ng/mL; Experiment 2 (fmol/cell well) [1]: 541 | Cyclic AMP produced; 5C9 100 µg/mL + pTSH 3 ng/mL; Experiment 1 (fmol/cell well) [1]: 344 | Cyclic AMP produced; 5C9 100 µg/mL + pTSH 3 ng/mL; Experiment 2 (fmol/cell well) [1]: 286 | Cyclic AMP produced; 5C9 100 µg/mL only (no TSH); Experiment 1 (fmol/cell well) [1]: 300 | Cyclic AMP produced; 5C9 100 µg/mL only (no TSH); Experiment 2 (fmol/cell well) [1]: 208 | cyclic AMP concentration; pTSH 3 ng/mL + 1 µg/mL 5C9 (fmol/cell well) [1]: 1110 | Cyclic AMP, serum T1 + 0.001 µg/mL 5C9 IgG (fmol/cell well) [2]: 16900 | Cyclic AMP, serum T1 + 0.01 µg/mL 5C9 IgG (fmol/cell well) [2]: 20300 | Cyclic AMP, serum T1 + 0.1 µg/mL 5C9 IgG (fmol/cell well) [2]: 16200 | Cyclic AMP, serum T1 + 1 µg/mL 5C9 IgG (fmol/cell well) [2]: 2430 | Cyclic AMP, serum T1 + 10 µg/mL 5C9 IgG (fmol/cell well) [2]: 1120 | Cyclic AMP, serum T3 + 0.001 µg/mL 5C9 IgG (fmol/cell well) [2]: 11600 | Cyclic AMP, serum T3 + 0.01 µg/mL 5C9 IgG (fmol/cell well) [2]: 13700 | Cyclic AMP, serum T3 + 0.1 µg/mL 5C9 IgG (fmol/cell well) [2]: 10400 | Cyclic AMP, serum T3 + 1 µg/mL 5C9 IgG (fmol/cell well) [2]: 8080 | Cyclic AMP, serum T3 + 10 µg/mL 5C9 IgG (fmol/cell well) [2]: 7810 | Cyclic AMP, serum T6 + 0.001 µg/mL 5C9 IgG (fmol/cell well) [2]: 11800 | Cyclic AMP, serum T6 + 0.01 µg/mL 5C9 IgG (fmol/cell well) [2]: 13900 | Cyclic AMP, serum T6 + 0.1 µg/mL 5C9 IgG (fmol/cell well) [2]: 9530 | Cyclic AMP, serum T6 + 1 µg/mL 5C9 IgG (fmol/cell well) [2]: 2370 | Cyclic AMP, serum T6 + 10 µg/mL 5C9 IgG (fmol/cell well) [2]: 1030 | Cyclic AMP, serum T19 + 0.001 µg/mL 5C9 IgG (mean of duplicate) (fmol/cell well) [2]: 6470 | Cyclic AMP, serum T19 + 0.01 µg/mL 5C9 IgG (fmol/cell well) [2]: 5750 | Cyclic AMP, serum T19 + 0.1 µg/mL 5C9 IgG (fmol/cell well) [2]: 375 | Cyclic AMP, serum T19 + 1 µg/mL 5C9 IgG (fmol/cell well) [2]: 187 | Cyclic AMP, serum T19 + 10 µg/mL 5C9 IgG (fmol/cell well) [2]: 275 | Cyclic AMP, serum T20 + 0.001 µg/mL 5C9 IgG (mean of duplicate) (fmol/cell well) [2]: 4860 | Cyclic AMP, serum T20 + 0.01 µg/mL 5C9 IgG (fmol/cell well) [2]: 6490 | Cyclic AMP, serum T20 + 0.1 µg/mL 5C9 IgG (fmol/cell well) [2]: 2180 | Cyclic AMP produced; 5C9 0.01 µg/mL + pTSH 3 ng/mL; Experiment 1 (fmol/cell well) [3]: 26200 | Cyclic AMP produced; 5C9 0.01 µg/mL + pTSH 3 ng/mL; Experiment 2 (fmol/cell well) [3]: 21200 | Cyclic AMP produced; 5C9 0.1 µg/mL + pTSH 3 ng/mL; Experiment 1 (fmol/cell well) [3]: 16900 | Cyclic AMP produced; 5C9 0.1 µg/mL + pTSH 3 ng/mL; Experiment 2 (fmol/cell well) [3]: 7320 | Cyclic AMP produced; 5C9 1.0 µg/mL + pTSH 3 ng/mL; Experiment 1 (fmol/cell well) [3]: 4790 | Cyclic AMP produced; 5C9 1.0 µg/mL + pTSH 3 ng/mL; Experiment 2 (fmol/cell well) [3]: 1510 | Cyclic AMP produced; 5C9 10 µg/mL + pTSH 3 ng/mL; Experiment 1 (fmol/cell well) [3]: 1380 | Cyclic AMP produced; 5C9 10 µg/mL + pTSH 3 ng/mL; Experiment 2 (fmol/cell well) [3]: 1300 | Cyclic AMP produced; 5C9 100 µg/mL + pTSH 3 ng/mL; Experiment 1 (fmol/cell well) [3]: 565 | Cyclic AMP produced; 5C9 100 µg/mL + pTSH 3 ng/mL; Experiment 2 (fmol/cell well) [3]: 288 | Cyclic AMP produced; 5C9 100 µg/mL only (no TSH); Experiment 1 (fmol/cell well) [3]: 602 | Cyclic AMP produced; 5C9 100 µg/mL only (no TSH); Experiment 2 (fmol/cell well) [3]: 314 | Mutated/wild type (%) of cyclic AMP; 5C9 0.01 µg/mL + pTSH 3 ng/mL; Experiment 1 [3]: 152% | Mutated/wild type (%) of cyclic AMP; 5C9 0.01 µg/mL + pTSH 3 ng/mL; Experiment 2 [3]: 151% | Mutated/wild type (%) of cyclic AMP; 5C9 0.1 µg/mL + pTSH 3 ng/mL; Experiment 1 [3]: 301% | Mutated/wild type (%) of cyclic AMP; 5C9 0.1 µg/mL + pTSH 3 ng/mL; Experiment 2 [3]: 164% | Mutated/wild type (%) of cyclic AMP; 5C9 1.0 µg/mL + pTSH 3 ng/mL; Experiment 1 [3]: 631% | Mutated/wild type (%) of cyclic AMP; 5C9 1.0 µg/mL + pTSH 3 ng/mL; Experiment 2 [3]: 230% | Mutated/wild type (%) of cyclic AMP; 5C9 10 µg/mL + pTSH 3 ng/mL; Experiment 1 [3]: 378% | Mutated/wild type (%) of cyclic AMP; 5C9 10 µg/mL + pTSH 3 ng/mL; Experiment 2 [3]: 240% | Mutated/wild type (%) of cyclic AMP; 5C9 100 µg/mL + pTSH 3 ng/mL; Experiment 1 [3]: 164% | Mutated/wild type (%) of cyclic AMP; 5C9 100 µg/mL + pTSH 3 ng/mL; Experiment 2 [3]: 101% | Mutated/wild type (%) of cyclic AMP; 5C9 100 µg/mL only (no TSH); Experiment 1 [3]: 201% | Mutated/wild type (%) of cyclic AMP; 5C9 100 µg/mL only (no TSH); Experiment 2 [3]: 151% | cyclic AMP; 100 µg/mL 5C9 IgG only (fmol/cell well) [4]: 253 | cyclic AMP; 5C9 0.01 µg/mL + TSH (fmol/cell well) [4]: 7340 | cyclic AMP; 5C9 0.1 µg/mL + TSH (fmol/cell well) [4]: 4640 | cyclic AMP; 5C9 1.0 µg/mL + TSH (fmol/cell well) [4]: 918 | cyclic AMP; 5C9 10 µg/mL + TSH (fmol/cell well) [4]: 351 | cyclic AMP; 5C9 100 µg/mL + TSH (fmol/cell well) [4]: 528 | cyclic AMP; 5C9 100 µg/mL only (fmol/cell well) [4]: 47 | cyclic AMP; T21 + 0.001 µg/mL 5C9 IgG (fmol/cell well) [4]: 11300 | cyclic AMP; T21 + 0.01 µg/mL 5C9 IgG (fmol/cell well) [4]: 10400 | cyclic AMP; T21 + 0.1 µg/mL 5C9 IgG (fmol/cell well) [4]: 7480 | cyclic AMP; T21 + 1 µg/mL 5C9 IgG (fmol/cell well) [4]: 418 | cyclic AMP; T21 + 10 µg/mL 5C9 IgG (fmol/cell well) [4]: 303 | cyclic AMP; T21 + 100 µg/mL 5C9 IgG (fmol/cell well) [4]: 210

% inhibition of basal cyclic AMP activity; 5C9 IgG 1 µg/mL [5]: 71% | Cyclic AMP produced; 5C9 0.01 µg/mL + TSH (fmol/cell well) [6]: 22000 | Cyclic AMP produced; 5C9 0.1 µg/mL + TSH (fmol/cell well) [6]: 15500 | Cyclic AMP produced; 5C9 1.0 µg/mL + TSH (fmol/cell well) [6]: 5240 | Cyclic AMP produced; 5C9 10 µg/mL + TSH (fmol/cell well) [6]: 1880 | Cyclic AMP produced; 5C9 100 µg/mL + TSH (fmol/cell well) [6]: 1170 | Cyclic AMP produced; 5C9 100 µg/mL only (fmol/cell well) [6]: 406 | Mutated/wild type (%); 5C9 0.01 µg/mL + TSH [6]: 104% | Mutated/wild type (%); 5C9 0.1 µg/mL + TSH [6]: 180% | Mutated/wild type (%); 5C9 1.0 µg/mL + TSH [6]: 573% | Mutated/wild type (%); 5C9 10 µg/mL + TSH [6]: 250% | Mutated/wild type (%); 5C9 100 µg/mL + TSH [6]: 236% | Mutated/wild type (%); 5C9 100 µg/mL only [6]: 88%
B1: 5C9 IgG (human monoclonal autoantibody to the TSHR) (antibody, from another filing, V domains shown)
VH: EVQLVESGGGLIQPGGSLRLSCAASGFTVSSNYMSWVRQAPGKGLEWVSVTYSGGSTSYADSVKGRFTISRDNSKNTLYLQMNSLRAEDTAVYYCARGGRYCSSISCYARSGCDYWGQGTLVTVSS
VL: AIQMTQSPSSLSASVGDRVTITCRASQSISNYLNWYQQKPGKAPKLLIYAASSLQSGVPSRFSGSGSGTDFTLTISSLQPEDFATYYCQQSYSSPSTTFGQGTKLEIK

Source: patent US8840891 (RSR, dated 2014)
